Assay results: US20190055322A1

Molecular target: PcrV of P. aeruginosa strain PA103 (on TTSS-induced bacteria) (Pseudomonas aeruginosa strain PA103)
Experiment: cell-based or functional assay

B1: Nanobody 283 (7E09-40GS-6B05) (VHH)
chain: EVQLVESGGGLVQAGGSLRLSCAASGRTFSSYIMGWFRQAPGKAREFVADITWGQRPYYADSVKGRFTISRDNAKNTVYLEMNSLKPEDTAVYYCAADLGVVIREEHAYWGQGTLVTVSSGGGGSGGGGSGGGGSGGGGSGGGGSGGGGSGGGGSGGGGSEVQLVESGGGLVQPGGSLRLSCAASGSIFSINTMGWYRQAPGKQRELVSTITSNLVPHYADSVQGRFTISRDNARNTVYLQMNSLKPQDTAHYYCNAWARSSGATPYTNYWGQGTLVTVSS
  % inhibition in P3X63 cytotoxicity assay, extract 1/150: 45%
  Efficacy (%), P3X63 cytotoxicity, MOI 12: 100%
  IC50 value (M), P3X63 cytotoxicity, MOI 12: 7.6e-11 M
  Ratio (IC50 Fab 13.37/IC50 Nanobody), A549 cytotoxicity: 1 fold

B2: Nanobody 264 (1E11-40GS-2B02) (VHH)
chain: EVQLVESGGGLVQPGGSLRLSCAASGSTRSVNPMAWFRQAPGRQREWVATISRSGYATYADSVKGRFTISGDNAKSSVYLQMNSLKPEDTAVYYCVTGTYWGQGTLVTVSSGGGGSGGGGSGGGGSGGGGSGGGGSGGGGSGGGGSGGGGSEVQLVESGGGLVQPGDSLRLSCAASGRILSINNMVWYRQAPGKQRELVAHITSSGSTGYADSVKGRFTISRDNAKNTFYLQMTNLNPEDTAVYYCNCWVSSDSNAPLKNYWGQGTLVTVSS
  % inhibition in P3X63 cytotoxicity assay, extract 1/150: 47%

B3: Nanobody 308 (6B05-40GS-1E11) (VHH)
chain: EVQLVESGGGLVQPGGSLRLSCAASGSIFSINTMGWYRQAPGKQRELVSTITSNLVPHYADSVQGRFTISRDNARNTVYLQMNSLKPQDTAHYYCNAWARSSGATPYTNYWGQGTLVTVSSGGGGSGGGGSGGGGSGGGGSGGGGSGGGGSGGGGSGGGGSEVQLVESGGGLVQPGGSLRLSCAASGSTRSVNPMAWFRQAPGRQREWVATISRSGYATYADSVKGRFTISGDNAKSSVYLQMNSLKPEDTAVYYCVTGTYWGQGTLVTVSS
  % inhibition in P3X63 cytotoxicity assay, extract 1/150: 57%
  Efficacy (%), P3X63 cytotoxicity, MOI 12: 100%
  IC50 value (M), P3X63 cytotoxicity, MOI 12: 1.8e-10 M
  Ratio (IC50 Fab 13.37/IC50 Nanobody), A549 cytotoxicity: 0.3 fold

B4: Nanobody 258 (13F07-40GS-14E10) (VHH)
chain: EVQLVESGGGLVQAGGSLRLSCAASGNTFSTNPMYWYRQAEGKQRELVASISSRGITNYADSVRGRFSISRDNTKDTVYLQMNSLKPEDTAVYYCRLASLSSGTVYWGKGTLVTVSSGGGGSGGGGSGGGGSGGGGSGGGGSGGGGSGGGGSGGGGSEVQLVESGGGLVQPGGSLRLSCAASGRIFSINTMGWYRQAPGKQRELVAGVTINAITNYADSVKGRFTISRDNAKNTVWLQMNSLKPEDTAVYYCHAWARSSGSAPYSQNWGQGTLVTVSS
  % inhibition in P3X63 cytotoxicity assay, extract 1/150: 69%
  Efficacy (%), P3X63 cytotoxicity, MOI 12: 100%
  IC50 value (M), P3X63 cytotoxicity, MOI 12: 9e-11 M
  Ratio (IC50 Fab 13.37/IC50 Nanobody), A549 cytotoxicity: 1 fold

B5: Fab 26.24 (Fab, V domains shown)
VH: EVQLVESGGGVVQPGRSLRLSCAASGFTFSNYPMHWVRQAPGKGLEWVAVISYDGSEKWYADSVKGRFTISRDNSKNTLYLEMNSLRPEDTAVYYCARNRGDIYYDFTYAMDIWGQGTTVTVSS
VL: DIQLTQSPSTLSASVGDSVTITCRASEGVDRWLAWYQQKPGRAPKLLIYDASTLQSGVPSRFSGSGSGTEFSLTISSLQPDDVATYYCQHFWGTPYTFGQGTKLEIKR
  % inhibition, P3X63 cytotoxicity assay, MOI 1.5: 100%
  % inhibition, P3X63 cytotoxicity assay, MOI 4: 100%
  IC50 (nM), P3X63 cytotoxicity assay, MOI 1.5: 34 nM
  IC50 (nM), P3X63 cytotoxicity assay, MOI 4: 48 nM

B6: Nanobody 269 (6B05-40GS-13F07) (VHH)
chain: EVQLVESGGGLVQPGGSLRLSCAASGSIFSINTMGWYRQAPGKQRELVSTITSNLVPHYADSVQGRFTISRDNARNTVYLQMNSLKPQDTAHYYCNAWARSSGATPYTNYWGQGTLVTVSSGGGGSGGGGSGGGGSGGGGSGGGGSGGGGSGGGGSGGGGSEVQLVESGGGLVQAGGSLRLSCAASGNTFSTNPMYWYRQAEGKQRELVASISSRGITNYADSVRGRFSISRDNTKDTVYLQMNSLKPEDTAVYYCRLASLSSGTVYWGKGTLVTVSS
  % inhibition in P3X63 cytotoxicity assay, extract 1/150: 41%
  Efficacy (%), P3X63 cytotoxicity, MOI 12: 100%
  IC50 value (M), P3X63 cytotoxicity, MOI 12: 8.2e-10 M
  Ratio (IC50 Fab 13.37/IC50 Nanobody), A549 cytotoxicity: 1 fold
